Laboratory results: patent US20220332795A1 (ARO BIOTHERAPEUTICS, published 2022)

Legend:
[1] = biological target: T1, human CD71 extracellular domain (human, UniProt P02786 89-760, biotinylated); assay: solution ELISA screen (luminescence)
T1 construct: extracellular domain; also called hCD71; huCD71 ECD

CD71 apical domain [2] = biological target: T2, CD71 apical domain (human, UniProt P02786 189-383, limits assumed); assay: solution ELISA screen (luminescence)
T2 construct: domain: apical domain

[3] = biological target: T1, human CD71 extracellular domain; assay: solution ELISA screen, signal ratio to HSA control
CD71 apical domain [4] = biological target: T2, CD71 apical domain; assay: solution ELISA screen, signal ratio to HSA control

T1 sequence (P02786 other isoform, or with tags, fused parts or gaps): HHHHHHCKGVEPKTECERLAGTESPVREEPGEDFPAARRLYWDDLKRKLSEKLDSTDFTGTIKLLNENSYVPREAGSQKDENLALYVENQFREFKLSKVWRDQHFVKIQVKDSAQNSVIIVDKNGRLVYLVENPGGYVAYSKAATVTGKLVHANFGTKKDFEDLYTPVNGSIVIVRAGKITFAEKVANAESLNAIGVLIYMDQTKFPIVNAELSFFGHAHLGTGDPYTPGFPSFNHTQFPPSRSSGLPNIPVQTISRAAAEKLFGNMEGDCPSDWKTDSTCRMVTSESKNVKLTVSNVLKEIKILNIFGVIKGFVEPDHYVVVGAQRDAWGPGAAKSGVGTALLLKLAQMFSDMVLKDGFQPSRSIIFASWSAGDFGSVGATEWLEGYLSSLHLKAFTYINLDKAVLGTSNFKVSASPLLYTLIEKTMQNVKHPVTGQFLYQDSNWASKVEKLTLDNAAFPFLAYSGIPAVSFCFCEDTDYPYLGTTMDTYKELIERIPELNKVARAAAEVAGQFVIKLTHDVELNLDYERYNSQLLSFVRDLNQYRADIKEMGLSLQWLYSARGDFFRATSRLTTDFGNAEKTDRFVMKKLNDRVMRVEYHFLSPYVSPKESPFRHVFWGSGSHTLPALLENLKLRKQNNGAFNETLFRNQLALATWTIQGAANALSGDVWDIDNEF
T2 sequence (P02786 189-383 limits assumed): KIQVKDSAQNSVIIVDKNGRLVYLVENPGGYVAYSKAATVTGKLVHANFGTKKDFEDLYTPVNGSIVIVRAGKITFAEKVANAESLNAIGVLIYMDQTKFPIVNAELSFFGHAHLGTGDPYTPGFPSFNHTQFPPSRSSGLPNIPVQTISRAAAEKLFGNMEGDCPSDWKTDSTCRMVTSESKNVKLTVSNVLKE

Binder	RLU [1] [RLU]	RLU (CD71 apical domain [2]) [RLU]	hCD71:HSA [3] [ratio]	apical domain:HSA (CD71 apical domain [4]) [ratio]
SEQ ID NO 239 (designed binder, not shown: small tags and cut ends) MLPAPKNLVVSRVTEDSARLSWTAPDAAFDSFYIAYAEPRPDGEAIQLVVPGSERSYDLTGLKPGTEYSVLIHGVKGGLLSSPLYAIFTT	559000	4.65e+06	26.5	221
SEQ ID NO 255 (designed binder, not shown: small tags and cut ends) MLPAPKNLVVSRVTEDSARLSWTAPDAAFDSFFIGYLEPQPPGEAILLFVPGSERSYDLTGLKPGTEYNVTIQGVKGGFPSTPLSASFTT	5.02e+06	7.08e+06	49.1	69.3
SEQ ID NO 256 (designed binder, not shown: small tags and cut ends) MLPAPKNLVVSRVTEDSARLSWTAPDAAFDSFYIAYAEPRPDGEAIQLTVPGSERSYDLTGLKPGTEYSVLIHGVKGGLLSSPLHAYFTT	2.07e+06	5.84e+06	27.2	76.7
SEQ ID NO 242 (designed binder, not shown: small tags and cut ends) MLPAPKNLVVSRVTEDSARLSWTAPDAAFDSFYIAYAEPRPDGEAIQLLVPGSERSYDLTGLKPGTEYSVLIHGVKGGLLSSPLYAAFTT	648000	4.9e+06	31.9	241
SEQ ID NO 257 (designed binder, not shown: small tags and cut ends) MLPAPKNLVVSRVTEDSARLSWTAPDAAFDSFYIAYAEPRPDGEAIQLGVPGSERSYDLTGLKPGTEYSVLIHGVKGGLLSSPLRAYFTT	802000	4.84e+06	26.9	162
SEQ ID NO 248 (designed binder, not shown: small tags and cut ends) MLPAPKNLVVSRVTEDSARLSWTAPDAAFDSFYIAYAEPRPDGEAIWLGVPGSERSYDLTGLKPGTEYSVLIHGVKGGLLSSPLHATFTT	756000	5.45e+06	22.2	160
SEQ ID NO 258 (designed binder, not shown: small tags and cut ends) MLPAPKNLVVSRVTEDSARLSWTAPDAAFDSFYIAYAEPRPDGEAILLEVPGSERSYDLTGLKPGTEYSVLIHGVKGGLLSSPLVAFFTT	5.4e+06	7.34e+06	204	277
SEQ ID NO 245 (designed binder, not shown: small tags and cut ends) MLPAPKNLVVSRVTEDSARLSWTAPDAAFDSFYIAYAEPRPDGEAIALWVPGSERSYDLTGLKPGTEYSVLIHGVKGGLLSSPLVASFTT	774000	4.77e+06	41.9	259
SEQ ID NO 247 (designed binder, not shown: small tags and cut ends) MLPAPKNLVVSRVTEDSARLSWTAPDAAFDSFYIAYAEPRPDGEAILLHVPGSERSYDLTGLKPGTEYSVLIHGVKGGLLSSPLRASFTT	4.3e+06	7.51e+06	226	394

More lines, now with the values ahead:

RLU [1] [RLU]	RLU (CD71 apical domain [2]) [RLU]	hCD71:HSA [3] [ratio]	apical domain:HSA (CD71 apical domain [4]) [ratio]	Binder
1.75e+06	5.93e+06	97.1	329	SEQ ID NO 244 (designed binder, not shown: small tags and cut ends) MLPAPKNLVVSRVTEDSARLSWTAPDAAFDSFYIAYAEPRPDGEAISLQVPGSERSYDLTGLKPGTEYSVLIHGVKGGLLSSPLGAHFTT
2.39e+06	93200	13.7	0.5	SEQ ID NO 261 (designed binder, not shown: small tags and cut ends) MLPAPKNLVVSRVTEDSARLSWTAPDAAFDSFYIAYAEPRPDGEAILLQVPGSERSYDLTGLKPGTEYSVLIHGVKGGLLSSPLIAKFTT
724000	5.54e+06	15	114	SEQ ID NO 250 (designed binder, not shown: small tags and cut ends) MLPAPKNLVVSRVTEDSARLSWTAPDAAFDSFYIAYAEPRPDGEAILLRVPGSERSYDLTGLKPGTEYSVLIHGVKGGLLSSPLYAKFTT
3.94e+06	7.13e+06	128	231	SEQ ID NO 262 (designed binder, not shown: small tags and cut ends) MLPAPKNLVVSRVTEDSARLSWTAPDAAFDSFYIAYAEPRPDGEAIVLHVPGSERSYDLTGLKPGTEYSVLIHGVKGGLLSSPLQAIFTT
4.34e+06	7.57e+06	59.6	104	SEQ ID NO 252 (designed binder, not shown: small tags and cut ends) MLPAPKNLVVSRVTEDSARLSWTAPDAAFDSFYIAYAEPRPDGEAIVLHVPGSERSYDLTGLKPGTEYSVLIHGVKGGLLSSPLDAFFTT
3.47e+06	7.21e+06	92	191	SEQ ID NO 253 (designed binder, not shown: small tags and cut ends) MLPAPKNLVVSRVTEDSARLSWTAPDAAFDSFYIAYAEPRPDGEAIILHVPGSERSYDLTGLKPGTEYSVLIHGVKGGLLSSPLDAYFTT
4.88e+06	7.05e+06	146	211	SEQ ID NO 260 (designed binder, not shown: small tags and cut ends) MLPAPKNLVVSRVTEDSARLSWTAPDAAFDSFYIAYAEPRPDGEAIHLRVPGSERSYDLTGLKPGTEYNVTIQGVKGGFPSMPLSAIFTT
584000	4.37e+06	24.5	184	SEQ ID NO 263 (designed binder, not shown: small tags and cut ends) MLPAPKNLVVSRVTEDSARLSWTAPDAAFDSFYIAYAEPRPDGEAIALVVPGSERSYDLTGLKPGTEYSVLIHGVKGGLLSSPLAANFTT
2.24e+06	6.62e+06	104	308	SEQ ID NO 254 (designed binder, not shown: small tags and cut ends) MLPAPKNLVVSRVTEDSARLSWTAPDAAFDSFYIAYAEPRPDGEAILLAVPGSERSYDLTGLKPGTEYSVLIHGVKGGLLSSPLSAKFTT
4.94e+06	7.43e+06	205	308	SEQ ID NO 249 (designed binder, not shown: small tags and cut ends) MLPAPKNLVVSRVTEDSARLSWTAPDAAFDSFYIAYAEPRPDGEAIVLEVPGSERSYDLTGLKPGTEYSVLIHGVKGGLLSSPLHANFTT
548000	47500	21.3	1.8	SEQ ID NO 246 (designed binder, not shown: small tags and cut ends) MLPAPKNLVVSRVTEDSARLSWTAPDAAFDSFYIAYAEPRPDGEAIQLHVPGSERSYDLTGLKPGTEYSVLIHGVKGGLLSSPLYAFFTT
610000	5.26e+06	33.9	292	SEQ ID NO 240 (designed binder, not shown: small tags and cut ends) MLPAPKNLVVSRVTEDSARLSWTAPDAAFDSFYIAYAEPRPDGEAISLSVPGSERSYDLTGLKPGTEYSVLIHGVKGGLLSSPLHAKFTT
1.26e+06	5.96e+06	49.7	235	SEQ ID NO 259 (designed binder, not shown: small tags and cut ends) MLPAPKNLVVSRVTEDSARLSWTAPDAAFDSFYIAYAEPRPDGEAIQLGVPGSERSYDLTGLKPGTEYSVLIHGVKGGLLSSPLLAVFTT
